# Data from the supplement of paper PMC5998384.
# Columns and labels:
# [1] = test system: HeLa Kyoto; test: melting temperature (median over replicates), in situ; higher = more thermally stable
# [2] = test system: HeLa Kyoto; test: thermal stability score vs G1/S (z-score of summed log2 fold changes over temperatures); higher = more thermally stable than in G1/S
# [3] = test system: HeLa Kyoto; test: solubility in G1/S (NP-40 vs SDS abundance) (log2 ratio); higher = more soluble; details: cell cycle stage: G1/S
# [4] = test system: HeLa Kyoto; test: solubility change mitosis vs G1/S (difference of NP-40 vs SDS log2 ratios) (log2 ratio difference); higher = more soluble in mitosis
# [5] = cell cycle stage: early G1 (4.5 h after nocodazole release)
# 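For melting temperature (median over replicates), in situ in this document: HeLa Kyoto cells synchronized by double thymidine or nocodazole block, proteins quantified by TMT10plex mass spectrometry, three independent biological replicates.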
# 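For solubility change mitosis vs G1/S (difference of NP-40 vs SDS log2 ratios) in this document: synchronized HeLa Kyoto cells (double thymidine block for G1/S, nocodazole release for mitosis), protein amounts in NP-40 versus SDS lysates quantified by mass spectrometry, three biological replicates.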
# 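For solubility in G1/S (NP-40 vs SDS abundance) in this document: HeLa Kyoto cells arrested at G1/S by double thymidine block, proteins quantified by TMT10plex mass spectrometry in mild NP-40 versus SDS extracts, three biological replicates.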
# 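For thermal stability score vs G1/S (z-score of summed log2 fold changes over temperatures) in this document: synchronized HeLa Kyoto cells, proteins quantified by TMT10plex mass spectrometry, three biological replicates, mitosis taken 0.5 h after nocodazole release, G1/S directly after double thymidine block.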
Substance,melting temperature ([1]; cell cycle stage: G1/S) [°C],melting temperature ([1]; cell cycle stage: mitosis) [°C],"thermal stability score [2, 5]",thermal stability score ([2]; cell cycle stage: mitosis),solubility in G1/S (log2) [3],solubility change mitosis (log2) [4]
MEATGTWALLLALALLLLLTLALSGTRARGHLPPGPTPLPLLGNLLQLRPGALYSGLMRLSKKYGPVFTIYLGPWRPVVVLVGQEAVREALGGQAEEFSGRGTVAMLEGTFDGHGVFFSNGERWRQLRKFTMLALRDLGMGKREGEELIQAEARCLVETFQGTEGRPFDPSLLLAQATSNVVCSLLFGLRFSYEDKEFQAVVRAAGGTLLGVSSQGGQTYEMFSWFLRPLPGPHKQLLHHVSTLAAFTVRQVQQHQGNLDASGPARDLVDAFLLKMAQEEQNPGTEFTNKNMLMTVIYLLFAGTMTVSTTVGYTLLLLMKYPHVQKWVREELNRELGAGQAPSLGDRTRLPYTDAVLHEAQRLLALVPMGIPRTLMRTTRFRGYTLPQGTEVFPLLGSILHDPNIFKHPEEFNPDRFLDADGRFRKHEAFLPFSLGKRVCLGEGLAKAELFLFFTTILQAFSLESPCPPDTLSLKPTVSGLFNIPPAFQLQVRPTDLHSTTQTR [CYP2S1],57.4,57.4,-1.27,0.83,-0.0959,-0.159
MECLRSLPCLLPRAMRLPRRTLCALALDVTSVGPPVAACGRRANLIGRSRAAQLCGPDRLRVAGEVHRFRTSDVSQATLASVAPVFTVTKFDKQGNVTSFERKKTELYQELGLQARDLRFQHVMSITVRNNRIIMRMEYLKAVITPECLLILDYRNLNLEQWLFRELPSQLSGEGQLVTYPLPFEFRAIEALLQYWINTLQGKLSILQPLILETLDALVDPKHSSVDRSKLHILLQNGKSLSELETDIKIFKESILEILDEEELLEELCVSKWSDPQVFEKSSAGIDHAEEMELLLENYYRLADDLSNAARELRVLIDDSQSIIFINLDSHRNVMMRLNLQLTMGTFSLSLFGLMGVAFGMNLESSLEEDHRIFWLITGIMFMGSGLIWRRLLSFLGRQLEAPLPPMMASLPKKTLLADRSMELKNSLRLDGLGSGRSILTNR [MRS2],55.4,54.5,-1.88,-2.56,-0.297,0.124
MED14,48.7,50.1,0.0685,1.11,-0.117,-0.0671
MEDFARGAASPGPSRPGLVPVSIIGAEDEDFENELETNSEEQNSQFQSLEQVKRRPAHLMALLQHVALQFEPGPLLCCLHADMLGSLGPKEAKKAFLDFYHSFLEKTAVLRVPVPPNVAFELDRTRADLISEDVQRRFVQEVVQSQQVAVGRQLEDFRSKRLMGMTPWEQELAQLEAWVGRDRASYEARERHVAERLLMHLEEMQHTISTDEEKSAAVVNAIGLYMRHLGVRTKSGDKKSGRNFFRKKVMGNRRSDEPAKTKKGLSSILDAARWNRGEPQVPDFRHLKAEVDAEKPGATDRKGGVGMPSRDRNIGAPGQDTPGVSLHPLSLDSPDREPGADAPLELGDSSPQGPMSLESLAPPESTDEGAETESPEPGDEGEPGRSGLELEPEEPPGWRELVPPDTLHSLPKSQVKRQEVISELLVTEAAHVRMLRVLHDLFFQPMAECLFFPLEELQNIFPSLDELIEVHSLFLDRLMKRRQESGYLIEEIGDVLLARFDGAEGSWFQKISSRFCSRQSFALEQLKAKQRKDPRFCAFVQEAESRPRCRRLQLKDMIPTEMQRLTKYPLLLQSIGQNTEEPTEREKVELAAECCREILHHVNQAVRDMEDLLRLKDYQRRLDLSHLRQSSDPMLSEFKNLDITKKKLVHEGPLTWRVTKDKAVEVHVLLLDDLLLLLQRQDERLLLKSHSRTLTPTPDGKTMLRPVLRLTSAMTREVATDHKAFYVLFTWDQEAQIYELVAQTVSERKNWCALITETAGSLKVPAPASRPKPRPSPSSTREPLLSSSENGNGGRETSPADARTERILSDLLPFCRPGPEGQLAATALRKVLSLKQLLFPAEEDNGAGPPRDGDGVPGGGPLSPARTQEIQENLLSLEETMKQLEELEEEFCRLRPLLSQLGGNSVPQPGCT [ARHGEF1],49.2,49.1,1.08,1.58,0.0626,-0.134
MEDSEALGFEHMGLDPRLLQAVTDLGWSRPTLIQEKAIPLALEGKDLLARARTGSGKTAAYAIPMLQLLLHRKATGPVVEQAVRGLVLVPTKELARQAQSMIQQLATYCARDVRVANVSAAEDSVSQRAVLMEKPDVVVGTPSRILSHLQQDSLKLRDSLELLVVDEADLLFSFGFEEELKSLLCHLPRIYQAFLMSATFNEDVQALKELILHNPVTLKLQESQLPGPDQLQQFQVVCETEEDKFLLLYALLKLSLIRGKSLLFVNTLERSYRLRLFLEQFSIPTCVLNGELPLRSRCHIISQFNQGFYDCVIATDAEVLGAPVKGKRRGRGPKGDKASDPEAGVARGIDFHHVSAVLNFDLPPTPEAYIHRAGRTARANNPGIVLTFVLPTEQFHLGKIEELLSGENRGPILLPYQFRMEEIEGFRYRCRDAMRSVTKQAIREARLKEIKEELLHSEKLKTYFEDNPRDLQLLRHDLPLHPAVVKPHLGHVPDYLVPPALRGLVRPHKKRKKLSSSCRKAKRAKSQNPLRSFKHKGKKFRPTAKPS [DDX56],51.8,52,0.609,0.497,-1.13,0.785
MEDVEARFAHLLQPIRDLTKNWEVDVAAQLGEYLEELDQICISFDEGKTTMNFIEAALLIQGSACVYSKKVEYLYSLVYQALDFISGKRRAKQLSSVQEDRANGVASSGVPQEAENEFLSLDDFPDSRTNVDLKNDQTPSEVLIIPLLPMALVAPDEMEKNNNPLYSRQGEVLASRKDFRMNTCVPHPRGAFMLEPEGMSPMEPAGVSPMPGTQKDTGRTEEQPMEVSVCRSPVPALGFSQEPGPSPEGPMPLGGGEDEDAEEAVELPEASAPKAALEPKESRSPQQSAALPRRYMLREREGAPEPASCVKETPDPWQSLDPFDSLESKPFKKGRPYSVPPCVEEALGQKRKRKGAAKLQDFHQWYLAAYADHADSRRLRRKGPSFADMEVLYWTHVKEQLETLRKLQRREVAEQWLRPAEEDHLEDSLEDLGAADDFLEPEEYMEPEGADPREAADLDAVPMSLSYEELVRRNVELFIATSQKFVQETELSQRIRDWEDTVQPLLQEQEQHVPFDIHTYGDQLVSRFPQLNEWCPFAELVAGQPAFEVCRSMLASLQLANDYTVEITQQPGLEMAVDTMSLRLLTHQRAHKRFQTYAAPSMAQP [NCAPH2],48.5,48.6,-0.208,-0.203,0.197,0.0239
MEEDTDYRIRFSSLCFFNDHVGFHGTIKSSPSDFIVIEIDEQGQLVNKTIDEPIFKISEIQLEPNNFPKKPKLDLQNLSLEDGRNQEVHTLIKYTDGDQNHQSGSEKEDTIVDGTSKCEEKADVLSSFLDEKTHELLNNFACDVREKWLSKTELIGLPPEFSIGRILDKNQRASLHSAIRQKFPFLVTVGKNSEIVVKPNLEYKELCHLVSEEEAFDFFKYLDAKKENSKFTFKPDTNKDHRKAVHHFVNKKFGNLVETKSFSKMNCSAGNPNVVVTVRFREKAHKRGKRPLSECQEGKVIYTAFTLRKENLEMFEAIGFLAIKLGVIPSDFSYAGLKDKKAITYQAMVVRKVTPERLKNIEKEIEKKRMNVFNIRSVDDSLRLGQLKGNHFDIVIRNLKKQINDSANLRERIMEAIENVKKKGFVNYYGPQRFGKGRKVHTDQIGLALLKNEMMKAIKLFLTPEDLDDPVNRAKKYFLQTEDAKGTLSLMPEFKVRERALLEALHRFGMTEEGCIQAWFSLPHSMRIFYVHAYTSKIWNEAVSYRLETYGARVVQGDLVCLDEDIDDENFPNSKIHLVTEEEGSANMYAIHQVVLPVLGYNIQYPKNKVGQWYHDILSRDGLQTCRFKVPTLKLNIPGCYRQILKHPCNLSYQLMEDHDIDVKTKGSHIDETALSLLISFDLDASCYATVCLKEIMKHDV [PUS7L],51,51.9,0.23,0.98,-0.0836,-0.137
MEEGGNLGGLIKMVHLLVLSGAWGMQMWVTFVSGFLLFRSLPRHTFGLVQSKLFPFYFHISMGCAFINLCILASQHAWAQLTFWEASQLYLLFLSLTLATVNARWLEPRTTAAMWALQTVEKERGLGGEVPGSHQGPDPYRQLREKDPKYSALRQNFFRYHGLSSLCNLGCVLSNGLCLAGLALEIRSL [TMEM205],,55.9,-2.96,-1.84,0.0662,-0.294
MEEGHGLDLTYITERIIAVSFPAGCSEESYLHNLQEVTRMLKSKHGDNYLVLNLSEKRYDLTKLNPKIMDVGWPELHAPPLDKMCTICKAQESWLNSNLQHVVVIHCRGGKGRIGVVISSYMHFTNVSASADQALDRFAMKKFYDDKVSALMQPSQKRYVQFLSGLLSGSVKMNASPLFLHFVILHGTPNFDTGGVCRPFLKLYQAMQPVYTSGIYNVGPENPSRICIVIEPAQLLKGDVMVKCYHKKYRSATRDVIFRLQFHTGAVQGYGLVFGKEDLDNASKDDRFPDYGKVELVFSATPEKIQGSEHLYNDHGVIVDYNTTDPLIRWDSYENLSADGEVLHTQGPVDGSLYAKVRKKSSSDPGIPGGPQAIPATNSPDHSDHTLSVSSDSGHSTASARTDKTEERLAPGTRRGLSAQEKAELDQLLSGFGLEDPGSSLKEMTDARSKYSGTRHVVPAQVHVNGDAALKDRETDILDDEMPHHDLHSVDSLGTLSSSEGPQSAHLGPFTCHKSSQNSLLSDGFGSNVGEDPQGTLVPDLGLGMDGPYERERTFGSREPKQPQPLLRKPSVSAQMQAYGQSSYSTQTWVRQQQMVVAHQYSFAPDGEARLVSRCPADNPGLVQAQPRVPLTPTRGTSSRVAVQRGVGSGPHPPDTQQPSPSKAFKPRFPGDQVVNGAGPELSTGPSPGSPTLDIDQSIEQLNRLILELDPTFEPIPTHMNALGSQANGSVSPDSVGGGLRASSRLPDTGEGPSRATGRQGSSAEQPLGGRLRKLSLGQYDNDAGGQLPFSKCAWGKAGVDYAPNLPPFPSPADVKETMTPGYPQDLDIIDGRILSSKESMCSTPAFPVSPETPYVKTALRHPPFSPPEPPLSSPASQHKGGREPRSCPETLTHAVGMSESPIGPKSTMLRADASSTPSFQQAFASSCTISSNGPGQRRESSSSAERQWVESSPKPMVSLLGSGRPTGSPLSAEFSGTRKDSPVLSCFPPSELQAPFHSHELSLAEPPDSLAPPSSQAFLGFGTAPVGSGLPPEEDLGALLANSHGASPTPSIPLTATGAADNGFLSHNFLTVAPGHSSHHSPGLQGQGVTLPGQPPLPEKKRASEGDRSLGSVSPSSSGFSSPHSGSTISIPFPNVLPDFSKASEAASPLPDSPGDKLVIVKFVQDTSKFWYKADISREQAIAMLKDKEPGSFIVRDSHSFRGAYGLAMKVATPPPSVLQLNKKAGDLANELVRHFLIECTPKGVRLKGCSNEPYFGSLTALVCQHSITPLALPCKLLIPERDPLEEIAESSPQTAANSAAELLKQGAACNVWYLNSVEMESLTGHQAIQKALSITLVQEPPPVSTVVHFKVSAQGITLTDNQRKLFFRRHYPVNSVIFCALDPQDRKWIKDGPSSKVFGFVARKQGSATDNVCHLFAEHDPEQPASAIVNFVSKVMIGSPKKV [TNS3],48,49.8,1.68,3.85,0.127,-0.126
MEEKLKKTKIIFVVGGPGSGKGTQCEKIVQKYGYTHLSTGDLLRSEVSSGSARGKKLSEIMEKGQLVPLETVLDMLRDAMVAKVNTSKGFLIDGYPREVQQGEEFERRIGQPTLLLYVDAGPETMTQRLLKRGETSGRVDDNEETIKKRLETYYKATEPVIAFYEKRGIVRKVNAEGSVDSVFSQVCTHLDALK [AK1],50.4,51,1.73,1.88,0.524,-0.0547
